The sequences below were run on TO-3-N3-2 (biotin conjugate) (assay: pull-down binding Z-score (relative to library population); higher = stronger binding). Details: RNA library: Library-2.
Outline: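 A heat-folded, dye-end-labelled (Cy5 or Cy3) RNA library (1 μg, phosphate/NaCl/KCl buffer) was exposed for 60 min at 25 °C to streptavidin beads holding 100 pmol of biotin-conjugated small molecule. RNA retained on the beads was eluted in hot SDS and hybridised to a DNA barcode microarray for 20 h at 55.5 °C. Binding scores were Z-scores against the library mean and standard deviation, calculated after subtracting beads alone and taking trimmed means of replicate probes.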
In the case of CUUGGAAAACUUCAAG, the “pull-down binding Z-score” value is reported as -0.265. “CUUUACCAACCACCACAAACCUCUAUCACCUCAGCUGUUUUGCAGAGUGGUUUUAGAAAAAUGGCAUUCCCAUCUGGUAAAG” was tested, and the “pull-down binding Z-score” value was 0.13. With “CUUUAGUAAUUACCUAAAGAGACGUGUAGUCUUUAAUGGUGUUUCCUUUAG” the “pull-down binding Z-score” value was -0.575. For “CUUUAUUAGAAG [DMSMaPseq_invitro_SARS-CoV-2_Motif_195]”, the “pull-down binding Z-score” value was -0.21. CUUUGAUAAAGCUGGUCAAAAGACUUAUGAAAG was tested, and the “pull-down binding Z-score” value was -0.4. With “CUUUGUAUUGCAUAGACGGUGCUUUACUUACAAAGUCCUCAGAAUACAAAG” the “pull-down binding Z-score” value was -0.719. With “CUUUUAUGUCUAUGCUAAUGGAGGUAAAGG [SHAPE_invivo_SARS-CoV-2_Motif_154]” the “pull-down binding Z-score” value was -0.487. With “CUUUUGAAGAAG [SHAPE_invivo_SARS-CoV-2_Motif_195]” the “pull-down binding Z-score” value was -0.577. In the case of “GAAAAGAACAAUCAAGGGUACACACCACUGGUUGUUACUCACAAUUUUGACUUCACUUUUAGUUUUAGUCCAGAGUACUCAAUGGUCUUUGUUCUUUUU”, the “pull-down binding Z-score” value is reported as -0.0313. “GAAAAUGACUCUAAAGAGGGUUUUUUC [SHAPE_invitro_SARS-CoV-2_Motif_382]” was tested, and the “pull-down binding Z-score” value was -0.323. In the case of “GAAAUACUUGUCACAUACAAUUGUUGUGAUGAUGAUUAUUUC”, the “pull-down binding Z-score” value is reported as -0.399. In the case of “GAAAUUUGACACCUUCAAUGGGGAAUGUCCAAAUUUU [SHAPE_invitro_SARS-CoV-2_Motif_22]”, the “pull-down binding Z-score” value is reported as -0.434. With GAACCUUGCUCUUCUGGAACAUACGAGGGCAAUUC the “pull-down binding Z-score” value was -0.0628. “GAACUCUACUAAUGUCACUAUUGCAACCUACUGUACUGGUUCUAUACCUUGUAGUGUUUGUCUUAGUGGUUUAGAUUC [DMSMaPseq_invitro_SARS-CoV-2_Motif_135]” was tested, and the “pull-down binding Z-score” value was -0.164. In the case of “GAAGAGGGAGCAAUUGUUGGCGAAAUUUCACCAUUGCCUUCUCUUC [IAV_invivo_NS1_NEP_8_Motif_10+IAV_invivo_NS1_NEP_8_Motif_10]”, the “pull-down binding Z-score” value is reported as 0.262. “GAAGGCUAUUUGAACUCUACUAAUGUCACUAUUGCAACCUACUGUACUGGUUCUAUACCUUGUAGUGUUUGUCUUAGUGGUUUAGAUUCUUU” was tested, and the “pull-down binding Z-score” value was -0.458. For “GAAGGUCUUAAUGACAACCUUC [SHAPE_invitro_SARS-CoV-2_Motif_33]”, the “pull-down binding Z-score” value was -0.502. “GAAGUCACACCUUC [SHAPE_invitro_SARS-CoV-2_Motif_534]” was tested, and the “pull-down binding Z-score” value was -0.725. “GAAGUUACAACAACUCUGGAAGAAACUAAGUUCCUCACAGAAAACUUGUUACUUU [DMSMaPseq_invitro_SARS-CoV-2_Motif_72]” was tested, and the “pull-down binding Z-score” value was -0.321. For GAAUGCGUCAUCAUCUGAAGCAUUU, the “pull-down binding Z-score” value was -0.405. “GAAUGGAGAACGCAGUGGGGCGCGAUCAAAACAACGUCGGCCCCAAGGUUUACCCAAUAAUACUGCGUCUUGGUUC” was tested, and the “pull-down binding Z-score” value was 0.382. In the case of “GAAUUUACACCUUUUGAUGUUGUUAGACAAUGCUCAGGUGUUACUUUC”, the “pull-down binding Z-score” value is reported as -0.394. For “GACAAUGUCUUAUCUACUUUUAUUUCAGCAGCUCGGCAAGGGUUUGUUGAUUCAGAUGUAGAAACUAAAGAUGUUGUU”, the “pull-down binding Z-score” value was -0.111. GACAGCAGAUAUAGUUGUC was tested, and the “pull-down binding Z-score” value was 0.368. With GACAGUGGUUGCCUACGGGUACGCUGCUUGUC the “pull-down binding Z-score” value was -0.021. For “GACAUCACUUUCUUAAAGAAAGAUGCUCCAUAUAUAGUGGGUGAUGUU [DMSMaPseq_invitro_SARS-CoV-2_Multi_15_ComplexLevel_1]”, the “pull-down binding Z-score” value was -0.0858. In the case of GACAUGUUCCUCGGAACUUGUC, the “pull-down binding Z-score” value is reported as -0.631. “GACAUUUUAUCUUACUAAUGAUGUUUCUUUUUUAGCACAUAUUCAGUGGAUGGUUAUGUU [DMSMaPseq_invitro_SARS-CoV-2_Motif_175]” was tested, and the “pull-down binding Z-score” value was 0.317. In the case of “GACCAGAAAUCAGCCCGAAUGGUU [IAV_invivo_PB1_2_Motif_17+IAV_invivo_PB1_2_Motif_17]”, the “pull-down binding Z-score” value is reported as -0.175. For “GACCCUAAGACUAAAAAUGUUACAAAAGAAAAUGACUCUAAAGAGGGUUUUUUCACUUACAUUUGUGGGUU”, the “pull-down binding Z-score” value was 0.101. For “GACCCUGUGGGUU [SHAPE_invitro_SARS-CoV-2_Motif_242]”, the “pull-down binding Z-score” value was -0.329. “GACGACUACUAGCGUGCCUUUGUAAGCACAAGCUGAUGAGUACGAACUUAUGUACUCAUUCGUU [SHAPE_invivo_SARS-CoV-2_Multi_65_ComplexLevel_1]” was tested, and the “pull-down binding Z-score” value was 0.0759. For “GACUACUAGCGUGCCUUUGUAAGCACAAGCUGAUGAGUACGAACUUAUGUACUCAUUCGUUUCGGAAGAGACAGGUACGUUAAUAGUU [SHAPE_invitro_SARS-CoV-2_Multi_71_ComplexLevel_1]”, the “pull-down binding Z-score” value was 0.392. With “GACUCAUUCAAGGAGGAGUU [SHAPE_invivo_SARS-CoV-2_Motif_469]” the “pull-down binding Z-score” value was -0.149. For GACUCUGAGCCAGUGCUCAAAGGAGUC, the “pull-down binding Z-score” value was -0.434. With GACUUAUGAAAACUAUAGGUC the “pull-down binding Z-score” value was 0.00298. For GACUUCAGUAACUCAGGUUCUGAUGUU, the “pull-down binding Z-score” value was -0.426. GACUUGCUUUAGCACUCAAUUUGCUUUUGCUUGUC was tested, and the “pull-down binding Z-score” value was -0.00573. In the case of GAGACAUUUAAACUGUCUU, the “pull-down binding Z-score” value is reported as -0.286. With “GAGACGGUCGGGUCCAGAUAUUCGUAUCUGUCGAGUAGAGUGUGGGCUCC [Broccoli]” the “pull-down binding Z-score” value was 0.495. In the case of “GAGAGUGUUCAGACAUUCUU [SHAPE_invivo_SARS-CoV-2_Motif_44]”, the “pull-down binding Z-score” value is reported as -0.0995. In the case of “GAGCUGCCCUGUCGGUGAAGCUC [IAV_invivo_NA_6_Motif_6+IAV_invivo_NA_6_Motif_6]”, the “pull-down binding Z-score” value is reported as -0.0787. “GAGGCACUUAAAAUGACCAUGGCCUC [IAV_invivo_NS1_NEP_8_Motif_6+IAV_invivo_NS1_NEP_8_Motif_6]” was tested, and the “pull-down binding Z-score” value was 0.446. For “GAGGCUAUGUACACACCGCAUACAGUCUUACAGGCUGUUGGGGCUUGUGUUCUUUGCAAUUC [SHAPE_invitro_SARS-CoV-2_Motif_296]”, the “pull-down binding Z-score” value was -0.158. With “GAGGGGUGUAUACUGCUGCCGUGAACAUGAGCAUGAAAUUGCUUGGUACACGGAACGUUCUGAAAAGAGCUAUGAAUUGCAGACACCUUUU” the “pull-down binding Z-score” value was -0.11. With GAGGUAAGUACGAUACUUACCUG [U1snRNP5ss-7] the “pull-down binding Z-score” value was -0.544. In the case of GAGGUAAGUAUGAUACUUACCUG [U1snRNP5ss-8], the “pull-down binding Z-score” value is reported as -0.377. With GAGGUGAGCAGGAUACUUACCUG [U1snRNP5ss-16] the “pull-down binding Z-score” value was -0.182. In the case of GAGGUGAUGCAGAUACUUACCUG [U1snRNP5ss-20], the “pull-down binding Z-score” value is reported as 0.169. For “GAGUAUUAGGUUUGAAAACCCUUGCUACUC [SHAPE_invivo_SARS-CoV-2_Motif_136]”, the “pull-down binding Z-score” value was -0.359. With “GAGUCCUCAUCGGAGGACUU [IAV_invivo_NS1_NEP_8_Motif_11+IAV_invivo_NS1_NEP_8_Motif_11]” the “pull-down binding Z-score” value was -0.368.

Source: the supplement of paper PMC11865577
